{"source": "patent US20040002457A1", "about": "“Inhibition of virus anchorage by RGG domain of a cell surface-expressed protein, polynucleotide coding for said RGG domain, therapeutic uses thereof by inhibition of microorganism or protein ligand binding to the cell-surface-expressed protein” (priority 2002, published 2004)", "binders": {"B1": {"name": "HB-19A, pseudopeptide 5[K-Psi(CH2N)-PR]-TASP with a modified TASP template (peptide)", "peptide": "Lys-Pro-Arg", "chain": "KKKKA", "modifications": "also: reduced amide bond Psi(CH2N) between Lys and Pro in each KPR, five KPR copies on the KKKKA template: alpha-NH2 of the four template Lys and epsilon-NH2 of the N-terminal Lys, template Lys linked through their epsilon-NH2 groups"}}, "key": {"[1]": {"target": "T1, cell-surface-expressed hamster nucleolin (on CHO K1, CHO 677 and CHO 618 cells) (Chinese hamster), A0A8C2", "T1 chain": "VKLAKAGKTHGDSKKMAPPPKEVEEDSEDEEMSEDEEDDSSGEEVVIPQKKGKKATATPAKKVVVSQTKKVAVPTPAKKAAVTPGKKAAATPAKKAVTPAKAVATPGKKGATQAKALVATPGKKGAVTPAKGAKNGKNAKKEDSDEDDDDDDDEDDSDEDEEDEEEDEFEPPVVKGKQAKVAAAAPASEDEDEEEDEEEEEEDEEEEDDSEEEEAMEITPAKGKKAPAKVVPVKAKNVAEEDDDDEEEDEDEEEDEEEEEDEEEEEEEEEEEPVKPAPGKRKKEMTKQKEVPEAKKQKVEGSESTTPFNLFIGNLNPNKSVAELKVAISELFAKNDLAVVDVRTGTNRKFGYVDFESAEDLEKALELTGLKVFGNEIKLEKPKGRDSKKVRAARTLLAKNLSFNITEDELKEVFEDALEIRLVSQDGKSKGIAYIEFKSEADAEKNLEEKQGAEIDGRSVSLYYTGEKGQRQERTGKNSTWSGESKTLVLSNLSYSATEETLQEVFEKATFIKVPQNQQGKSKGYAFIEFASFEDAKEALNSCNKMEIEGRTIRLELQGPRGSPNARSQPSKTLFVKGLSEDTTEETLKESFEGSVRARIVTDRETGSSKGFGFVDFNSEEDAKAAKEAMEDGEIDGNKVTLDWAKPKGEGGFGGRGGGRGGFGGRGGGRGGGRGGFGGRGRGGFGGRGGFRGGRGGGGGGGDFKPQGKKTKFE", "assay": "biotinylated HB-19A on wild type CHO K1 cells, streptavidin-HRP"}, "[2]": {"target": "cell-surface-expressed human nucleolin (on HeLa P4 and MT4 cells) (human), P19338", "sequence (P19338 2-710)": "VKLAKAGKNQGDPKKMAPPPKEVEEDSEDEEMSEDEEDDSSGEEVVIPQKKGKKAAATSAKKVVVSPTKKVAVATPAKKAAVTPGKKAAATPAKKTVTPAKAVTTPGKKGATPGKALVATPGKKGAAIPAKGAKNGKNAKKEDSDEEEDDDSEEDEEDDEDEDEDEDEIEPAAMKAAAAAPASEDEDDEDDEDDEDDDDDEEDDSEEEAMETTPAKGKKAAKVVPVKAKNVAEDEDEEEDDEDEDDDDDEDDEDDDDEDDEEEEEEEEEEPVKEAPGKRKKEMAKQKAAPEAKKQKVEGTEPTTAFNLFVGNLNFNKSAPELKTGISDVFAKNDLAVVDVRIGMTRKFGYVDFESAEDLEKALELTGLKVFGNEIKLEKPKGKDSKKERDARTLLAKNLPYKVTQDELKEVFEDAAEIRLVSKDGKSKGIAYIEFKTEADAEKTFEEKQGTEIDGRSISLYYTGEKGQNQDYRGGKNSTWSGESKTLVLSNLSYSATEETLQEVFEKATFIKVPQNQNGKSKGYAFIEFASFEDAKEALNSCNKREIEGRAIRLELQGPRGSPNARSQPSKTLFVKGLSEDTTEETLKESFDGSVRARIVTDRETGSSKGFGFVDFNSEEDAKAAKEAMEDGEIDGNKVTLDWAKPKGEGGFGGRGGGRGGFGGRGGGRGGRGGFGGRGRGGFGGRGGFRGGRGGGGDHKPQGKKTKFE", "assay": "125I-labeled HB-19A on HeLa P4 cell monolayers, wash at 300 mM NaCl"}, "[3]": {"target": "GST-R1234G, GST fusion of the C-terminal part of human nucleolin (RBDs I-IV and RGG domain) (human) (UniProt P19338)", "sequence (P19338 308-707, stated change not applied)": "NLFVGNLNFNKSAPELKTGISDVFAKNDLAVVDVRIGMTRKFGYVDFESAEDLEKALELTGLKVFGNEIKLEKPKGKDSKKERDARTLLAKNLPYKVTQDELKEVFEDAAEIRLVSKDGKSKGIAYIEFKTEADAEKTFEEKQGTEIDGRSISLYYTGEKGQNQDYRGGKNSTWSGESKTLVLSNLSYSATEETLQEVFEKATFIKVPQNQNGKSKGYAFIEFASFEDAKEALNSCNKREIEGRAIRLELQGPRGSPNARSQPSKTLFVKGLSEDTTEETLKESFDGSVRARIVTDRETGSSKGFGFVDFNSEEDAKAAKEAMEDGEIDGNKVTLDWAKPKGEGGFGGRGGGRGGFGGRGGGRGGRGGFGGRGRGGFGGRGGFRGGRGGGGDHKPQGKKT", "assay": "dose series 0-10 µM biotinylated HB-19A, avidin-agarose pull-down, anti-GST immunoblot"}, "[4]": {"target": "GST-R234G, GST fusion of human nucleolin RBDs II, III, IV and the RGG domain (human) (UniProt P19338)", "sequence (P19338 389-710, stated change not applied)": "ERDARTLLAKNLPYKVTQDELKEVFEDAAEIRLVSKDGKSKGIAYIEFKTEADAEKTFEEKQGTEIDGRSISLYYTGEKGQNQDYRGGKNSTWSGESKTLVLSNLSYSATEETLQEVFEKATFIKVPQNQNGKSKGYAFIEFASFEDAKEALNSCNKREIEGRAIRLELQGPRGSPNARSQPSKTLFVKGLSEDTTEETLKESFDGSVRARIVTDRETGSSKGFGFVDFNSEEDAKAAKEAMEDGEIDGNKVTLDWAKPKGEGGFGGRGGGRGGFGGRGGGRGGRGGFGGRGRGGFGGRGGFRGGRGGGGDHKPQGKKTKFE", "assay": "dose series 0-10 µM biotinylated HB-19A, avidin-agarose pull-down, anti-GST immunoblot"}, "[5]": {"target": "GST-G, GST fusion of the RGG domain of human nucleolin alone (human), P19338", "sequence (P19338 648-710)": "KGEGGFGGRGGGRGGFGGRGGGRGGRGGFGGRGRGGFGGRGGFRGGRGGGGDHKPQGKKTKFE", "assay": "dose series 0-10 µM biotinylated HB-19A, avidin-agarose pull-down, anti-GST immunoblot"}}, "note": "No end group written: not given here."}
{"binder": "B1", "values": [{"measurement": "HB-19A concentration at saturation of binding", "setting": "[1]", "result": 1, "unit": "µM"}, {"measurement": "HB-19A concentration at saturation of specific binding", "setting": "[2]", "result": 1, "unit": "µM"}, {"measurement": "HB-19A concentration at maximum binding", "setting": "[3]", "result": 5, "unit": "µM"}, {"measurement": "HB-19A concentration at maximum binding", "setting": "[4]", "result": 5, "unit": "µM"}, {"measurement": "HB-19A concentration at maximum binding", "setting": "[5]", "result": 5, "unit": "µM"}]}
